# According to patent publication US20210380703A1:
# Changes are numbered by the printed parent chain.
# B1: 374_F07 (antibody, V domains shown)
# VH: EVQLLESGGGLVQPGGSLRLSCAASGFTFDSYSMNWVRQAPGKGLEWVASINYNGGYTGYADSVKGRFTISRDNSKNTLYLQMNSLRAEDTAVYYCARGANWHDTHLDYWGQGTLVTVSS
# VL: DIQMTQSPSSLSASVGDRVTITCRASQSILSYLNWYQQKPGKAPKLVIYAVTSLASGVPSRFSGSGSGTDFTLTISSLQPEDFATYYCQQSYESPLTFGGGTKVEIK
# B2: 375_A08 (antibody, V domains shown)
# VH: B1 VH with D30S, S50G, H106A
# VL: B1 VL with L30V, S31T, V47L, V51A, L54R
# B3: 376_B03 (antibody, V domains shown)
# VH: B1 VH with D30S, S50G, G55S, T58K, G59S, H106A
# VL: B1 VL with L33V, L54R, A55H, E93D
# B4: 375_G05 (antibody, V domains shown)
# VH: B1 VH with D30S, S50G, G59S, H106A
# VL: B1 VL with L30V, V47L, L54R, E93D
# B5: 375_B12 (antibody, V domains shown)
# VH: B1 VH with S50G, T58K, G59S, H106A
# VL: B1 VL with L30V, S31T, V47L, V51A, L54R, E93D, S94T
# B6: 368_B10 (antibody, V domains shown)
# VH: B1 VH with S33G, N35H, G59S, G99A, H106A
# VL: B1 VL with S31T, V51A, L54R, Y92D, S94L
# B7: 374_G08 (antibody, V domains shown)
# VH: B1 VH with A49S, S50G, G59S, H106A
# VL: B1 VL with S31T, L33V, V51A, L54R, E93D
# B8: 374_H11 (antibody, V domains shown)
# VH: B1 VH with D30S, A49S, S50G, G59S, H106A
# VL: B1 VL with L30I, L33V, V51A, A55H, E93S, S94N
# B9: 374_F08 (antibody, V domains shown)
# VH: B1 VH with A49S, S50G, T58K, G59S, H106A
# VL: B1 VL with S31T, L33V, L54R, E93D, S94T
# B10: 375_C04 (antibody, V domains shown)
# VH: B1 VH with D30S, S31D, S50G, G59S, H106A
# VL: B1 VL with S31T, V51A, L54R
# B11: 375_E10 (antibody, V domains shown)
# VH: B1 VH with D30S, A49S, S50G, G59S, H106A
# VL: B1 VL with V51A, L54R, E93D, S94N
# B12: 375_H05 (antibody, V domains shown)
# VH: B1 VH with D30S, A49S, S50N, H106A
# VL: B1 VL with L33V, V47L, V51A, L54R, E93D, S94T
# B13: 368_B11 (antibody, V domains shown)
# VH: B1 VH with S33G, N35H, A49S, S50G, T58K, G59S, G99A
# VL: B1 VL with V47L, V51A, T52S, A55Q, E93D
# B14: 374_G03 (antibody, V domains shown)
# VH: B1 VH with D30S, S31D, A49S, S50G, G59S, H106A
# VL: B1 VL with L30S, V51A, L54R, Y92D, E93D, S94T
# B15: 375_D10 (antibody, V domains shown)
# VH: B1 VH with D30S, S50G, G59S, H106A
# VL: B1 VL with S31T, L33V, V47L, V51A, L54R, Y92D, E93D
# B16: 376_C04 (antibody, V domains shown)
# VH: B1 VH with D30S, S33G, A49S, S50N, H106A
# VL: B1 VL with L33V, V47L, L54R, A55H, E93D, S94N
# B17: 375_G04 (antibody, V domains shown)
# VH: B1 VH with D30S, S33G, G55S
# VL: B1 VL with L30V, L33V, V47L, V51A, E93D
# B18: 368_B03 (antibody, V domains shown)
# VH: B1 VH with S31D, S33G, A49S, S50G, G59S, G99A, H106A
# VL: B1 VL with S31T, V51A, Q90H, S94N
# B19: 375_E06 (antibody, V domains shown)
# VH: B1 VH with D30S, A49S, S50G, T58K, G59S, H106A
# VL: B1 VL with V51A, L54R, E93D
# B20: 374_G10 (antibody, V domains shown)
# VH: B1 VH with D30S, A49S, G55S, G59S
# VL: B1 VL with L30V, L54R, E93D
# B21: 375_D01 (antibody, V domains shown)
# VH: B1 VH with D30S, A49S, S50G, H106A
# VL: B1 VL with S31T, V51A, L54R, S94T
# B22: 368_B08 (antibody, V domains shown)
# VH: B1 VH with S33G, A49S, G59S, G99A
# VL: B1 VL with S31T, L33V, V51A, L54R, S94N
# B23: 374_G11 (antibody, V domains shown)
# VH: B1 VH with D30S, S31D, A49S, S50G, G59S, H106A
# VL: B1 VL with L30I, L33V, V51A, E93D
# B24: 376_E02 (antibody, V domains shown)
# VH: B1 VH with D30S, S50G, T58K, H106A
# VL: B1 VL with L33V, V51A, L54R, A55H, Y92D, E93N, S94T
# B25: 365_B04 (antibody, V domains shown)
# VH: B1 VH with D30S, S33G, N35H, G55S, G59S, G99A, H106A
# VL: B1 VL with S31T, V47L, V51A, L54R, A55H, Y92D
# B26: 375_A07 (antibody, V domains shown)
# VH: B1 VH with A49S, G55S
# VL: B1 VL with S31T, V47L, V51A, L54R, E93D, S94T
# B27: 375_F08 (antibody, V domains shown)
# VH: B1 VH with D30S, S33G, A49S, G55S, T58K, G59S
# VL: B1 VL with V47L, V51A, L54R, A55H, E93D, S94N
# B28: 375_F07 (antibody, V domains shown)
# VH: B1 VH with D30S, S31D, A49S, S50N, H106A
# VL: B1 VL with V47L, V51A, L54R, E93D
# B29: 374_H01 (antibody, V domains shown)
# VH: B1 VH with S50G, G59S
# VL: B1 VL with V51A, S94N
# B30: 375_E03 (antibody, V domains shown)
# VH: B1 VH with D30S, S31D, S50N
# VL: B1 VL with S31T, V51A, E93D, S94N
# B31: 375_A12 (antibody, V domains shown)
# VH: B1 VH with D30S, A49S, S50G, G55S, T58K, G59S, H106A
# VL: B1 VL with L54R, S94T
# B32: 376_E11 (antibody, V domains shown)
# VH: B1 VH with D30S, A49S, S50G, G59S, H106A
# VL: B1 VL with S31T, L33V, V51A, L54R, S94L
# B33: 374_G09 (antibody, V domains shown)
# VH: B1 VH with D30S, S50G, T58K
# VL: B1 VL with L30V, S31R, V51A, S94L
# B34: 375_F02 (antibody, V domains shown)
# VH: B1 VH with D30S, G55S, G59S
# VL: B1 VL with V47L, V51A, L54R, E93D
# Target: human Fc (human)
# Assay: ELISA, negative control
row,optical density,Binder
1,0.176 OD,B1
2,0.205 OD,B2
3,0.253 OD,B3
4,0.21 OD,B4
5,0.223 OD,B5
6,0.412 OD,B6
7,0.206 OD,B7
8,0.169 OD,B8
9,0.211 OD,B9
10,0.221 OD,B10
11,0.187 OD,B11
12,0.167 OD,B12
13,0.286 OD,B13
14,0.193 OD,B14
15,0.228 OD,B15
16,0.219 OD,B16
17,0.161 OD,B17

row,optical density,Binder
1,0.297 OD,B18
2,0.188 OD,B19
3,0.173 OD,B20
4,0.182 OD,B21
5,0.314 OD,B22
6,0.179 OD,B23
7,0.222 OD,B24
8,0.271 OD,B25
9,0.188 OD,B26
10,0.201 OD,B27
11,0.172 OD,B28
12,0.251 OD,B29
13,0.181 OD,B30
14,0.174 OD,B31
15,0.268 OD,B32
16,0.223 OD,B33
17,0.205 OD,B34
